The source of these data is patent publication US20260193348A1.

First the molecules themselves.
B1: Bis-108-H3L4 (bispecific antibody, not shown: a dimerising Fc or GST)
heavy: EVQLVQSGAEVKKPGASVKVSCKASGYTFTSYVIHWVRQAPGQGLEWMGYFNPYNDGTKYNEEFKGRVTLTSDKSTSTAYMELRSLRSDDTAVYYCARGGVRRYFDVWGQGTTVTVSS
heavy (part 1 of 2): EVQLVQSGAEVKKPGASVKVSCKASGYTFTSYVIHWVRQAPGQGLEWMGYFNPYNDGTKYNEEFKGRVTLTSDKSTSTAYMELRSLRSDDTAVYYCARGGVRRYFDVWGQGTTVTVSS
heavy (part 2 of 2): GGGGSGGGGSEVQLVESGGGLVQPGGSLRLSCAASGFTFNTYAMNWVRQAPGKGLEWVARIRSKYNNYATYYAASVKGRFTISRDDSKNSLYLQMNSLKTEDTAVYYCARHGNFGNSYVSWFAYWGQGTLVTVSSGGGGSGGGGSGGGGSGGGGSQTVVTQEPSLTVSPGGTVTLTCRSSTGAVTTSNYANWVQQKPGQAPRGLIGGTNKRAPGTPARFSGSLLGGKAALTLSGVQPEDEAEYYCALWYSNLWVFGGGTKLTVLGGGGSGGGGS
light: DIQMTQSPSSLSASVGDRVTITCRASQDIGSNLNWLQQKPGKAIKRLIYATFGLDSGVPSRFSGSRSGTDFTLTISSLQPEDFATYYCQQYASFPYTFGGGTKVEIK
B2: ATG-Bis-108 (bispecific antibody, not shown: a dimerising Fc or GST)
heavy: EVQLQQSGPELVKPGASVKMSCKASGYTFTSYVIHWVKQKTGQGLEWIGYFNPYNDGTKYNEEFKGKATLTSDKSSNTAYMELNSLTSDDSAVYFCARGGVRRYFDVWGAGTTVTVSS
heavy (part 1 of 2): EVQLQQSGPELVKPGASVKMSCKASGYTFTSYVIHWVKQKTGQGLEWIGYFNPYNDGTKYNEEFKGKATLTSDKSSNTAYMELNSLTSDDSAVYFCARGGVRRYFDVWGAGTTVTVSS
heavy (part 2 of 2): GGGGSGGGGSEVQLVESGGGLVQPGGSLRLSCAASGFTFNTYAMNWVRQAPGKGLEWVARIRSKYNNYATYYAASVKGRFTISRDDSKNSLYLQMNSLKTEDTAVYYCARHGNFGNSYVSWFAYWGQGTLVTVSSGGGGSGGGGSGGGGSGGGGSQTVVTQEPSLTVSPGGTVTLTCRSSTGAVTTSNYANWVQQKPGQAPRGLIGGTNKRAPGTPARFSGSLLGGKAALTLSGVQPEDEAEYYCALWYSNLWVFGGGTKLTVLGGGGSGGGGS
light: DIQMTQSPSSLSASLGERVSLTCRASQDIGSNLNWLQQEPDGTIKRLIYATFGLDSGVPKRFSGSRSGSDYSLTISSLESEDFVDYYCQQYASFPYTFGGGTKLEIK
B3: Bis-108-H1L4 (bispecific antibody, not shown: a dimerising Fc or GST)
heavy: EVQLVQSGAEVKKPGASVKVSCKASGYTFTSYVIHWVRQAPGQGLEWMGYFNPYNDGTKYNEEFKGRVTMTTDTSTSTAYMELRSLRSDDTAVYYCARGGVRRYFDVWGQGTTVTVSS
heavy (part 1 of 2): EVQLVQSGAEVKKPGASVKVSCKASGYTFTSYVIHWVRQAPGQGLEWMGYFNPYNDGTKYNEEFKGRVTMTTDTSTSTAYMELRSLRSDDTAVYYCARGGVRRYFDVWGQGTTVTVSS
heavy (part 2 of 2): GGGGSGGGGSEVQLVESGGGLVQPGGSLRLSCAASGFTFNTYAMNWVRQAPGKGLEWVARIRSKYNNYATYYAASVKGRFTISRDDSKNSLYLQMNSLKTEDTAVYYCARHGNFGNSYVSWFAYWGQGTLVTVSSGGGGSGGGGSGGGGSGGGGSQTVVTQEPSLTVSPGGTVTLTCRSSTGAVTTSNYANWVQQKPGQAPRGLIGGTNKRAPGTPARFSGSLLGGKAALTLSGVQPEDEAEYYCALWYSNLWVFGGGTKLTVLGGGGSGGGGS
light: DIQMTQSPSSLSASVGDRVTITCRASQDIGSNLNWLQQKPGKAIKRLIYATFGLDSGVPSRFSGSRSGTDFTLTISSLQPEDFATYYCQQYASFPYTFGGGTKVEIK
B4: Bis-108-H2L4 (bispecific antibody, not shown: a dimerising Fc or GST)
heavy: EVQLVQSGAEVKKPGASVKVSCKASGYTFTSYVIHWVRQAPGQGLEWIGYFNPYNDGTKYNEEFKGRATMTTDTSTSTAYMELRSLRSDDTAVYYCARGGVRRYFDVWGQGTTVTVSS
heavy (part 1 of 2): EVQLVQSGAEVKKPGASVKVSCKASGYTFTSYVIHWVRQAPGQGLEWIGYFNPYNDGTKYNEEFKGRATMTTDTSTSTAYMELRSLRSDDTAVYYCARGGVRRYFDVWGQGTTVTVSS
heavy (part 2 of 2): GGGGSGGGGSEVQLVESGGGLVQPGGSLRLSCAASGFTFNTYAMNWVRQAPGKGLEWVARIRSKYNNYATYYAASVKGRFTISRDDSKNSLYLQMNSLKTEDTAVYYCARHGNFGNSYVSWFAYWGQGTLVTVSSGGGGSGGGGSGGGGSGGGGSQTVVTQEPSLTVSPGGTVTLTCRSSTGAVTTSNYANWVQQKPGQAPRGLIGGTNKRAPGTPARFSGSLLGGKAALTLSGVQPEDEAEYYCALWYSNLWVFGGGTKLTVLGGGGSGGGGS
light: DIQMTQSPSSLSASVGDRVTITCRASQDIGSNLNWLQQKPGKAIKRLIYATFGLDSGVPSRFSGSRSGTDFTLTISSLQPEDFATYYCQQYASFPYTFGGGTKVEIK
B5: Bis-108-H5L3 (bispecific antibody, not shown: a dimerising Fc or GST)
heavy: EVQLVQSGAEVKKPGASVKVSCKASGYTFTSYVIHWVKQAPGQGLEWIGYFNPYNDGTKYNEEFKGKATLTTDKSTSTAYMELRSLRSDDTAVYYCARGGVRRYFDVWGQGTTVTVSS
heavy (part 1 of 2): EVQLVQSGAEVKKPGASVKVSCKASGYTFTSYVIHWVKQAPGQGLEWIGYFNPYNDGTKYNEEFKGKATLTTDKSTSTAYMELRSLRSDDTAVYYCARGGVRRYFDVWGQGTTVTVSS
heavy (part 2 of 2): GGGGSGGGGSEVQLVESGGGLVQPGGSLRLSCAASGFTFNTYAMNWVRQAPGKGLEWVARIRSKYNNYATYYAASVKGRFTISRDDSKNSLYLQMNSLKTEDTAVYYCARHGNFGNSYVSWFAYWGQGTLVTVSSGGGGSGGGGSGGGGSGGGGSQTVVTQEPSLTVSPGGTVTLTCRSSTGAVTTSNYANWVQQKPGQAPRGLIGGTNKRAPGTPARFSGSLLGGKAALTLSGVQPEDEAEYYCALWYSNLWVFGGGTKLTVLGGGGSGGGGS
light: DIQMTQSPSSLSASVGDRVTITCRASQDIGSNLNWLQQKPGKAIKRLIYATFGLDSGVPSRFSGSGSGTDYTLTISSLQPEDFATYYCQQYASFPYTFGGGTKVEIK

Chain of GPRC5D (G-protein coupled receptor family C group 5 member D), human, on multiple myeloma cell lines (human) (Q9NZD1 whole entry): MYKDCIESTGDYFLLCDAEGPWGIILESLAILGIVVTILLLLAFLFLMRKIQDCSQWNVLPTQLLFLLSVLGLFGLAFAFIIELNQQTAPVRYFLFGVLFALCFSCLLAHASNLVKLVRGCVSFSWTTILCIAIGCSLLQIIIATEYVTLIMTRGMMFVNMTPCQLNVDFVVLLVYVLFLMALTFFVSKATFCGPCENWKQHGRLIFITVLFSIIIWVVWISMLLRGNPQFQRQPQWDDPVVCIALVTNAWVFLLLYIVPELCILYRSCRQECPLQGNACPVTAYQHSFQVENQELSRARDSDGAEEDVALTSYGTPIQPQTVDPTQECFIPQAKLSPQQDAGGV

This assay has as its target GPRC5D (G-protein coupled receptor family C group 5 member D), human, on multiple myeloma cell lines (human) (UniProt Q9NZD1). Briefly: cell-based or functional assay.
For the molecule B1, the IC50 (nM), T-Cell Dependent Cytotoxicity, MM.1S is 0.0496 nM and the Top (%), T-Cell Dependent Cytotoxicity, MM.1S turned out to be 72.4%.

As for B2, the IC50 (nM), T-Cell Dependent Cytotoxicity, MM.1S was found to be 0.0871 nM and the Top (%), T-Cell Dependent Cytotoxicity, MM.1S turned out to be 77.2%.

For the molecule B3, the IC50 (nM), T-Cell Dependent Cytotoxicity, MM.1S was found to be 0.0597 nM and the Top (%), T-Cell Dependent Cytotoxicity, MM.1S turned out to be 75.5%.

Regarding B4, the IC50 (nM), T-Cell Dependent Cytotoxicity, MM.1S was 0.0934 nM and the Top (%), T-Cell Dependent Cytotoxicity, MM.1S came to 74%.

On to B5, for which the IC50 (nM), T-Cell Dependent Cytotoxicity, MM.1S was found to be 0.0897 nM and the Top (%), T-Cell Dependent Cytotoxicity, MM.1S came out at 74.8%.
